pKd: −log10 of the molar value. Like-named read-outs stand apart in the source and are kept apart here.
Tests used:
STAT1 = STAT1 (UniProt P42224); experiment: sedimentation velocity analytical ultracentrifugation; details: reference: uSTAT1; sites Y701
[1] = target: full-length importin-α5 with C-terminal Strep-tag (human) (UniProt P52294); experiment: SEC
[2] = target: importin α5, GST-tag removed (human) (UniProt P52294); experiment: AUC
[3] = target: GST-importin α5 (1-538) Tyr476Gly (human) (UniProt P52294); experiment: SPR
GST-importin α5 (1-538) Tyr476Gly (human), sequence (P52294 whole entry Y476G): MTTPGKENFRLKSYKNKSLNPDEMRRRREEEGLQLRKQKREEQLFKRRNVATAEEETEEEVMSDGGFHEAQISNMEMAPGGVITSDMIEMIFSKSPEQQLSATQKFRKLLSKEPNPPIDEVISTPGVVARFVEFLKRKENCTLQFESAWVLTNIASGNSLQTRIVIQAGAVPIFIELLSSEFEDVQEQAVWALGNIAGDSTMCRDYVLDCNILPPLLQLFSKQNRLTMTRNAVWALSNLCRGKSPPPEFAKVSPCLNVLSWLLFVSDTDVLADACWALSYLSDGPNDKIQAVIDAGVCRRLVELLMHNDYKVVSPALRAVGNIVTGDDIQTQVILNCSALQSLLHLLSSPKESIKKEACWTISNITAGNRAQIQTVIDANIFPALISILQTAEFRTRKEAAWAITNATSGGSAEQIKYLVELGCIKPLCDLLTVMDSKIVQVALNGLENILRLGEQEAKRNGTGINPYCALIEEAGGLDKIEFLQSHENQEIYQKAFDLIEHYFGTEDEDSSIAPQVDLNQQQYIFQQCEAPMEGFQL

[4] = target: GST-importin α1/α5 (res. 1-446 of α1/449-538 of α5) (human) (UniProt P52292); experiment: SPR
[5] = target: GST-importin α5 (res. 1-538) (human) (UniProt P52294); experiment: SPR
GST-importin α5 (res. 1-538) (human), sequence (P52294 whole entry): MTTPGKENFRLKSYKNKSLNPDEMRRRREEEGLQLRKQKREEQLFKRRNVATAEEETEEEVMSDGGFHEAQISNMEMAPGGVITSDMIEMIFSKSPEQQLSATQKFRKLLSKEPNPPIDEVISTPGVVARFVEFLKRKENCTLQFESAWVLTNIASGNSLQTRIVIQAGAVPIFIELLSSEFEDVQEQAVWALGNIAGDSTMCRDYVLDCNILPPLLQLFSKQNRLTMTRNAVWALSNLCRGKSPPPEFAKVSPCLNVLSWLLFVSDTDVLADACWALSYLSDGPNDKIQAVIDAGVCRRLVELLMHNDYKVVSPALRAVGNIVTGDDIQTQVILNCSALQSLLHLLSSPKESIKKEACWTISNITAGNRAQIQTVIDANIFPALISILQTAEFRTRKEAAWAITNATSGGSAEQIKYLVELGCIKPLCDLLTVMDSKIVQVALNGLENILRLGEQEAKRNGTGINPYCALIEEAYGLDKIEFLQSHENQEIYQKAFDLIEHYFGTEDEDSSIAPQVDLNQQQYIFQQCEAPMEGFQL

[6] = target: GST-importin α5 (res. 1-538) (human) (UniProt P52294); experiment: SPR; remark: listed apart in the source
[7] = target: GST-importin α5 (1-538) Tyr476Gly (human) (UniProt P52294); experiment: SPR; remark: listed apart in the source

phosphorylated-Tyr701 STAT1 (1-712), N-terminal 6-histidine tag, sequence (P42224 1-712): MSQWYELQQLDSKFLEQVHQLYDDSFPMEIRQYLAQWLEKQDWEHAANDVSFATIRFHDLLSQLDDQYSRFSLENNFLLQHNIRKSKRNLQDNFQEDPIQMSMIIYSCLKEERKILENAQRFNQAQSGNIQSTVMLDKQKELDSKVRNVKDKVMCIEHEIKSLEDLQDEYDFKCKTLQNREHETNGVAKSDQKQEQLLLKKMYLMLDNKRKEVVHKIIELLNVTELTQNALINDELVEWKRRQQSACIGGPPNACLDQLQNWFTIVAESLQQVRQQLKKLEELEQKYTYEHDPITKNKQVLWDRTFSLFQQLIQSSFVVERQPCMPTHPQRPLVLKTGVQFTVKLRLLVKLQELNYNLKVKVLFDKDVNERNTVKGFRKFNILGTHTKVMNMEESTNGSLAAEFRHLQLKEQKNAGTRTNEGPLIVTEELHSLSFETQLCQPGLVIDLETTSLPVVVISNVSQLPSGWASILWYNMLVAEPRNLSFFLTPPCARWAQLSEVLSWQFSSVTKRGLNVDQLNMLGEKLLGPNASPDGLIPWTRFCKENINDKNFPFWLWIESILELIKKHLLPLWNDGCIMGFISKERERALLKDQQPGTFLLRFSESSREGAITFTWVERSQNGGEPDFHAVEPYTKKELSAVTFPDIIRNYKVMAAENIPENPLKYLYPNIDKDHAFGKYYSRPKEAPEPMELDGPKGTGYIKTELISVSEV
importin α5, GST-tag removed (human), sequence (P52294 whole entry): as the sequence (P52294 whole entry) above
full-length importin-α5 with C-terminal Strep-tag (human), sequence (P52294 whole entry): as above
STAT1 (from UniProt P42224) pSTAT1, sequence (P42224 whole entry, change not shown): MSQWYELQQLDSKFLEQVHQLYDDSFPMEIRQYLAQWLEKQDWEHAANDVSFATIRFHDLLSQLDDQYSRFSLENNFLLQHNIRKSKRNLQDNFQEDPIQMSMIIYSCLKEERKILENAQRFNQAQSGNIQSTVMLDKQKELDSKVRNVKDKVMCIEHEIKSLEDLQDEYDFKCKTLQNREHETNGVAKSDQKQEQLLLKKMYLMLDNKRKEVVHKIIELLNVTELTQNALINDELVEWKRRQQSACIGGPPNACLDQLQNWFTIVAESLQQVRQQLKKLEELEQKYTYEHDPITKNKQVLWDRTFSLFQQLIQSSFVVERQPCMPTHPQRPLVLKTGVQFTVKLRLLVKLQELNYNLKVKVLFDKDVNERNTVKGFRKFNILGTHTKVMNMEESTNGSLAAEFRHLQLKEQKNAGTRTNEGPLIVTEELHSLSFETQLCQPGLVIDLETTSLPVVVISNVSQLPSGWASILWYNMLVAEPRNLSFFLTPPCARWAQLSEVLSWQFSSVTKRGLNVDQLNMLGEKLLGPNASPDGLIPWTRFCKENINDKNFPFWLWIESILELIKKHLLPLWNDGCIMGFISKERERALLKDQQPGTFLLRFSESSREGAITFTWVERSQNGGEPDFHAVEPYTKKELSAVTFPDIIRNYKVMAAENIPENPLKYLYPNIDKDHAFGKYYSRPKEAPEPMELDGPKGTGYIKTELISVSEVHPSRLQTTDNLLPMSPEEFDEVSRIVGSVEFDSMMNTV
STAT1 (UniProt P42224), sequence (P42224 whole entry): as the sequence (P42224 whole entry, change not shown) above

Q: With STAT1 (from UniProt P42224) pSTAT1 as the substance, how does the “other: molecular weight” value (STAT1) read?
A: same; reference ~180

Q: How did the stoichiometry N (pSTAT1 dimer per importin α5 molecule) [1] turn out when “Strep-tagged phosphorylated-Tyr701 STAT1 (from UniProt P42224 1-750) (natural protein)” was run?
A: 1

Q: “phosphorylated-Tyr701 STAT1 (1-712), N-terminal 6-histidine tag (from UniProt P42224-2 1-712) (natural protein)” was tested. Which stoichiometry N (pSTAT1 dimer per importin α5 molecule) [2] did it give?
A: 1

Q: What about the pKd [3] of the same substance?
A: 5.37

Q: And the koff [3]?
A: 0.289 s⁻¹

Q: And the kon [3]?
A: 66600 M⁻¹ s⁻¹

Q: And the pKd [4]?
A: 6.27

Q: And the pKd [5]?
A: 6.72

Q: What about the koff [5] of the same substance?
A: 0.0189 s⁻¹

Q: And the kon [5]?
A: 98800 M⁻¹ s⁻¹

Q: What about the koff [6] of the same substance?
A: 0.0183 s⁻¹

Q: And the koff [7]?
A: 289 s⁻¹
